Experimental data taken from patent US20240092890A1 (JUNTENDO EDUCATIONAL FOUNDATION, published 2024).

T1: Ins 5 type mutant CALR protein on UT-7/TPO CALR Ins 5 cells (UniProt P27797 18-417)
T1 sequence (looked up): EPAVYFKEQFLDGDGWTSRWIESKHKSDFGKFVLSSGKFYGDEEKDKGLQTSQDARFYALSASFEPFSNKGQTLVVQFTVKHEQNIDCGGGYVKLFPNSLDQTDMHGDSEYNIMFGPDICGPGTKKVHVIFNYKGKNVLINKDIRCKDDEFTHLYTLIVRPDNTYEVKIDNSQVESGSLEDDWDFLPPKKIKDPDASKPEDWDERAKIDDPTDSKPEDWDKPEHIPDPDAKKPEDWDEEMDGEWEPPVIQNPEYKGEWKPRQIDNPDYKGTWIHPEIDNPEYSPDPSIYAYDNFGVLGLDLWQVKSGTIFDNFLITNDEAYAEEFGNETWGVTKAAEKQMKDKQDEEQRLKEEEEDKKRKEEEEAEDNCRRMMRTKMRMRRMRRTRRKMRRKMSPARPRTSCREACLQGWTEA

T2: protein having an Fc region and a His-tag added to the N-terminus of SEQ ID NO: 1
T2 construct: also called mutant CALR protein (antigen of the BLItz measurement); not shown: Fc region and His-tag at the N-terminus
T2 chain: RRMMRTKMRMRRM


Experiments:
[1] = target: T1, Ins 5 type mutant CALR protein on …; assay: cell-based or functional assay
[2] = target: T2, protein having an Fc region and a …; assay: BLItz biolayer interferometry, Fc/His-SEQ ID NO: 1 protein on the biosensor
Procedure: As another method, measurements were performed using the molecular interaction analysis system BLItz (ForteBio), which applies biolayer interferometry […]. Specifically, a protein having an Fc region and a His-tag added to the N-terminus of SEQ ID NO: 1 was immobilized at a concentration of 0.1 mg/mL using the Anti-Penta-HIS or ProteinA biosensor (ForteBio). Subsequently, the antibodies 1 to 114 made were prepared at a concentration of 500, 100, and 50 nM and reacted to acquire the dissociation constant.

| Binder | EC50 of cytotoxic activity (calcein release, T-LAK effector cells) [1] [pM] | Kd [2] [pM] |
| --- | --- | --- |
| Antibody 16 (bispecific antibody, B3 Fab with hOKT3 scFv fused to the Fab heavy chain C-terminus) heavy: QVQLQQSGAELVKPGSSVKISCKASGYTFTRNFIHWIKQQPGNGLEWIGWIFPGDGDTEYNQKFNGKATLTADKSSSTAYMQLSSLTSEDSAVYFCARGNYNYEYFDYWGQGVMVTVSSASTKGPSVFPLAPSSKSTSGGTAALGCLVKDYFPEPVTVSWNSGALTSGVHTFPAVLQSSGLYSLSSVVTVPSSSLGTQTYICNVNHKPSNTKVDKRVEPKSCGGGGSQVQLVQSGGGVVQPGRSLRLSCKASGYTFTRYTMHWVRQAPGKGLEWIGYINPSRGYTNYNQKVKDRFTISRDNSKNTAFLQMDSLRPEDTGVYFCARYYDDHYSLDYWGQGTPVTVSSGGGGSGGGGSGGGGSDIQMTQSPSSLSASVGDRVTITCSASSSVSYMNWYQQTPGKAPKRWIYDTSKLASGVPSRFSGSGSGTDYTFTISSLQPEDIATYYCQQWSSNPFTFGQGTKLQITRHHHHHH light: DIQMTQSPASLSASLGETVSIECLASEDIYSYLAWYQQKPGKSPQLLIFAANRLQDGVPSRFSGSGSGTQFSLKISGMQPEDEGDYFCLQGSKFPYTFGPGTKLELNRTVAAPSVFIFPPSDEQLKSGTASVVCLLNNFYPREAKVQWKVDNALQSGNSQESVTEQDSKDSTYSLSSTLTLSKADYEKHKVYACEVTHQGLSSPVTKSFNRGEC | 334 | 2830 |
| Antibody 22 (bispecific antibody, hOKT3 scFv, B3 Fab heavy chain and CH3 domain in one polypeptide, with the B3 light chain) heavy: QVQLVQSGGGVVQPGRSLRLSCKASGYTFTRYTMHWVRQAPGKGLEWIGYINPSRGYTNYNQKVKDRFTISRDNSKNTAFLQMDSLRPEDTGVYFCARYYDDHYSLDYWGQGTPVTVSSGGGGSGGGGSGGGGSDIQMTQSPSSLSASVGDRVTITCSASSSVSYMNWYQQTPGKAPKRWIYDTSKLASGVPSRFSGSGSGTDYTFTISSLQPEDIATYYCQQWSSNPFTFGQGTKLQITRGGGGSQVQLQQSGAELVKPGSSVKISCKASGYTFTRNFIHWIKQQPGNGLEWIGWIFPGDGDTEYNQKFNGKATLTADKSSSTAYMQLSSLTSEDSAVYFCARGNYNYEYFDYWGQGVMVTVSSASTKGPSVFPLAPSSKSTSGGTAALGCLVKDYFPEPVTVSWNSGALTSGVHTFPAVLQSSGLYSLSSVVTVPSSSLGTQTYICNVNHKPSNTKVDKRVEPKSCAAAGGGQPREPQVYTLPPSREEMTKNQVSLTCLVKGFYPSDIAVEWESNGQPENNYKTTPPVLDSDGSFFLYSKLTVDKSRWQQGNVFSCSVMHEALHNHYTQKSLSLSPGK light: DIQMTQSPASLSASLGETVSIECLASEDIYSYLAWYQQKPGKSPQLLIFAANRLQDGVPSRFSGSGSGTQFSLKISGMQPEDEGDYFCLQGSKFPYTFGPGTKLELNRTVAAPSVFIFPPSDEQLKSGTASVVCLLNNFYPREAKVQWKVDNALQSGNSQESVTEQDSKDSTYSLSSTLTLSKADYEKHKVYACEVTHQGLSSPVTKSFNRGEC | 101 | < 1 |
| Antibody 17 (bispecific antibody, B3 Fab heavy chain, hOKT3 scFv and Fc in one polypeptide, with the B3 light chain) heavy: not shown light: DIQMTQSPASLSASLGETVSIECLASEDIYSYLAWYQQKPGKSPQLLIFAANRLQDGVPSRFSGSGSGTQFSLKISGMQPEDEGDYFCLQGSKFPYTFGPGTKLELNRTVAAPSVFIFPPSDEQLKSGTASVVCLLNNFYPREAKVQWKVDNALQSGNSQESVTEQDSKDSTYSLSSTLTLSKADYEKHKVYACEVTHQGLSSPVTKSFNRGEC | 46 | < 1 |
| Antibody 20 (bispecific antibody, hOKT3 scFv fused to the N-terminus of the B3 Fab heavy chain) heavy: QVQLVQSGGGVVQPGRSLRLSCKASGYTFTRYTMHWVRQAPGKGLEWIGYINPSRGYTNYNQKVKDRFTISRDNSKNTAFLQMDSLRPEDTGVYFCARYYDDHYSLDYWGQGTPVTVSSGGGGSGGGGSGGGGSDIQMTQSPSSLSASVGDRVTITCSASSSVSYMNWYQQTPGKAPKRWIYDTSKLASGVPSRFSGSGSGTDYTFTISSLQPEDIATYYCQQWSSNPFTFGQGTKLQITRGGGGSQVQLQQSGAELVKPGSSVKISCKASGYTFTRNFIHWIKQQPGNGLEWIGWIFPGDGDTEYNQKFNGKATLTADKSSSTAYMQLSSLTSEDSAVYFCARGNYNYEYFDYWGQGVMVTVSSASTKGPSVFPLAPSSKSTSGGTAALGCLVKDYFPEPVTVSWNSGALTSGVHTFPAVLQSSGLYSLSSVVTVPSSSLGTQTYICNVNHKPSNTKVDKRVEPKSCHHHHHH light: DIQMTQSPASLSASLGETVSIECLASEDIYSYLAWYQQKPGKSPQLLIFAANRLQDGVPSRFSGSGSGTQFSLKISGMQPEDEGDYFCLQGSKFPYTFGPGTKLELNRTVAAPSVFIFPPSDEQLKSGTASVVCLLNNFYPREAKVQWKVDNALQSGNSQESVTEQDSKDSTYSLSSTLTLSKADYEKHKVYACEVTHQGLSSPVTKSFNRGEC | 1460 | 12400 |
| Antibody 18 (bispecific antibody, B3 Fab heavy chain, hOKT3 scFv and CH3 domain in one polypeptide, with the B3 light chain) heavy: QVQLQQSGAELVKPGSSVKISCKASGYTFTRNFIHWIKQQPGNGLEWIGWIFPGDGDTEYNQKFNGKATLTADKSSSTAYMQLSSLTSEDSAVYFCARGNYNYEYFDYWGQGVMVTVSSASTKGPSVFPLAPSSKSTSGGTAALGCLVKDYFPEPVTVSWNSGALTSGVHTFPAVLQSSGLYSLSSVVTVPSSSLGTQTYICNVNHKPSNTKVDKRVEPKSCGGGGSQVQLVQSGGGVVQPGRSLRLSCKASGYTFTRYTMHWVRQAPGKGLEWIGYINPSRGYTNYNQKVKDRFTISRDNSKNTAFLQMDSLRPEDTGVYFCARYYDDHYSLDYWGQGTPVTVSSGGGGSGGGGSGGGGSDIQMTQSPSSLSASVGDRVTITCSASSSVSYMNWYQQTPGKAPKRWIYDTSKLASGVPSRFSGSGSGTDYTFTISSLQPEDIATYYCQQWSSNPFTFGQGTKLQITRAAAGGGQPREPQVYTLPPSREEMTKNQVSLTCLVKGFYPSDIAVEWESNGQPENNYKTTPPVLDSDGSFFLYSKLTVDKSRWQQGNVFSCSVMHEALHNHYTQKSLSLSPGK light: DIQMTQSPASLSASLGETVSIECLASEDIYSYLAWYQQKPGKSPQLLIFAANRLQDGVPSRFSGSGSGTQFSLKISGMQPEDEGDYFCLQGSKFPYTFGPGTKLELNRTVAAPSVFIFPPSDEQLKSGTASVVCLLNNFYPREAKVQWKVDNALQSGNSQESVTEQDSKDSTYSLSSTLTLSKADYEKHKVYACEVTHQGLSSPVTKSFNRGEC | 81 | < 1 |
| Antibody 19 (bispecific antibody, B3 Fab heavy chain, hOKT3 scFv and a second B3 Fab heavy chain in one polypeptide, with the B3 light chain) heavy: QVQLQQSGAELVKPGSSVKISCKASGYTFTRNFIHWIKQQPGNGLEWIGWIFPGDGDTEYNQKFNGKATLTADKSSSTAYMQLSSLTSEDSAVYFCARGNYNYEYFDYWGQGVMVTVSSASTKGPSVFPLAPSSKSTSGGTAALGCLVKDYFPEPVTVSWNSGALTSGVHTFPAVLQSSGLYSLSSVVTVPSSSLGTQTYICNVNHKPSNTKVDKRVEPKSCGGGGSQVQLVQSGGGVVQPGRSLRLSCKASGYTFTRYTMHWVRQAPGKGLEWIGYINPSRGYTNYNQKVKDRFTISRDNSKNTAFLQMDSLRPEDTGVYFCARYYDDHYSLDYWGQGTPVTVSSGGGGSGGGGSGGGGSDIQMTQSPSSLSASVGDRVTITCSASSSVSYMNWYQQTPGKAPKRWIYDTSKLASGVPSRFSGSGSGTDYTFTISSLQPEDIATYYCQQWSSNPFTFGQGTKLQITRGGGGSQVQLQQSGAELVKPGSSVKISCKASGYTFTRNFIHWIKQQPGNGLEWIGWIFPGDGDTEYNQKFNGKATLTADKSSSTAYMQLSSLTSEDSAVYFCARGNYNYEYFDYWGQGVMVTVSSASTKGPSVFPLAPSSKSTSGGTAALGCLVKDYFPEPVTVSWNSGALTSGVHTFPAVLQSSGLYSLSSVVTVPSSSLGTQTYICNVNHKPSNTKVDKRVEPKSCHHHHHH light: DIQMTQSPASLSASLGETVSIECLASEDIYSYLAWYQQKPGKSPQLLIFAANRLQDGVPSRFSGSGSGTQFSLKISGMQPEDEGDYFCLQGSKFPYTFGPGTKLELNRTVAAPSVFIFPPSDEQLKSGTASVVCLLNNFYPREAKVQWKVDNALQSGNSQESVTEQDSKDSTYSLSSTLTLSKADYEKHKVYACEVTHQGLSSPVTKSFNRGEC | 3710 | 728 |
